In patent US20250353908A1 (ARCELLX, published 2025):

Molecular target: T1, CS1-Fc (human, UniProt Q9NQ25 23-226)
T1 construct: also called recombinant human CS1-Fc; CS1-Fc polypeptide; not shown: Fc portion of CS1-Fc
T1 sequence: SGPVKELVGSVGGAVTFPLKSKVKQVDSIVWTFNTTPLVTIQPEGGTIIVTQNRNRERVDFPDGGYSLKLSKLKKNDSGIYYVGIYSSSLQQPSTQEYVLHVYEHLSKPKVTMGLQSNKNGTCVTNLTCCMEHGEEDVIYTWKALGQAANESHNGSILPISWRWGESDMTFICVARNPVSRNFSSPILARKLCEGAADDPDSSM
Test: SPR (Biacore), adapter protein DD-GS linker-Q26, CS1-Fc target
Source text: One or more of the above discussed methods were used to identify the SEQ ID NO: 41-47, 49-61, 91-93 and 96-106 variant CS1 specific D domains. […] In addition to binding human CS1, the CS1DD03, CSDD006 and CS1DD007 D domains are cross-reactive with cyno/rhesus CS1.

Kd: 16 nM
B1: CS1DD021 adapter protein of the format DD-GS linker-Q26 (designed binder)
chain: MGSWDEFNQRLGAFEERLQALGGSEAELAALEKEIAAFESELQAYKGKGNPEVEFLRWYADGIRWELQAYRHN
